# The DeepSol protein solubility set
# Experiment: soluble on expression in E. coli; label from the status in PepcDB or PDB records
row,Sequence,soluble on expression in E. coli
1,MRYIRQLCCVSLLCLSGSAVAANVRLQVEGLSGQLEKNVRAQLSTIESDEVTPDRRFRARVDDAIREGLKALGYYQPTIEFDLRPPPKKGRQVLIAKVTPGVPVLIGGTDVVLRGGARTDKDYLKLLDTRPAIGTVLNQGDYENFKKSLTSIALRKGYFDSEFTKAQLGIALGLHKAFWDIDYNSGERYRFGHVTFEGSQIRDEYLQNLVPFKEGDEYESKDLAELNRRLSATGWFNSVVVAPQFDKARETKVLPLTGVVSPRTENTIETGVGYSTDVGPRVKATWKKPWMNSYGHSLTTSTSISAPEQTLDFSYKMPLLKNPLEQYYLVQGGFKRTDLNDTESDSTTLVASRYWDLSSGWQRAINLRWSLDHFTQGEITNTTMLFYPGVMISRTRSRGGLMPTWGDSQRYSIDYSNTAWGSDVDFSVFQAQNVWIRTLYDRHRFVTRGTLGWIETGDFDKVPPDLRFFAGGDRSIRGYKYKSIAPKYANGDLKGASKLITGSLEYQYNVTGKWWGAVFVDSGEAVSDIRRSDFKTGTGVGVRWESPVGPIKLDFAVPVADKDEHGLQFYIGLGPELLEHHHHHH,not soluble
2,MGSDKIHHHHHHMLKITFLGTNGWFDSNTGNTPSVLIEHRNYYIILDAGNGISKLRNCISSDKPVYLFLSHFHLDHISGLHTLPLNKFSKGLYIIVPKGGTKLINQFVNVPFTVPIKKLPFKTEIIEACNKLNFLPFKATFLPLVHSSYVLGIRLEIDSKTISYCTDTSYCFNAITLAKNADLLISECSMKPLGTDDASVHLNPELASKIAKEAGAKKLMLIHFDAAKYLTLDDRKKAELAAKTIFNNSYASYDDLELQV,not soluble
3,MFNHVTVLLKETVDGLDIKPDGTYVDCTLGGGGHSSYLLSQLTEGGRLIAFDQDEIAIQNAKEKFSSYGEQFITVKSNFRYLSEKLQELGITEVDGILFDLGVSSPQLDTPERGFSYHHDAPLDMRMDQDAPLTAYDVVNSWSYEQLVRIFFQYGEEKFSKQIARKIEAYRENKAIETTGELVELIKEGIPAPARRTGGHPAKRVFQAIRIAVNDELKVFEEALESAIEMVKPGGRVSVITFHSLEDRICKTTFKRNSTTPQLPPGLPIIPDEFKPKLKLITRKPILPSDIELEENNRARSAKLRIAEKR,not soluble
4,MSLRKGNEIELLVEGIEFPAKGFGFVDGLKVYAKNTFPGQKVFGRVTKKRKEYAEIRVSEVREKASYEEDQKCPHFGVCGGCSSQTIPYEKQLELKVEQVKDLFKEAEVPTGEFLGIETSPIQWEYRNKMEYTFGDEEKGGELTLGMHMKGKSFGIVNVDKCVLVDEDFRNILDTTVKYFREKGLPFYKIMPRTGYLRYLVVRKSVKTEEILVNLVTTTQIDFDLTEFTELIKGLNLKGKLKSIIHTESDALSEAVIPEKVNILYGDDFITENLLGLNFKISPFSFFQTNSLGAEKLYSIVRDFMGAADNKVVFDLYCGTGTIGQIAAGKASKVIGIELIEEAAMAANENAKLNGLNNCNFIAGDVAEVIKTVKDKPDIIILDPPRSGVHPKALDYVIKFNAPQIIYVSCNPKTLVTDLKVLEAKGYEIEKTLLMDMFPNTPHVETVVKLNKKEGHHHHHH,soluble
5,MSRRVATITLNPAYDLVGFCPEIERGEVNLVKTTGLHAAGKGINVAKVLKDLGIDVTVGGFLGKDNQDGFQQLFSELGIANRFQVVQGRTRINVKLTEKDGEVTDFNFSGFDVTPADWERFVNDSLSWLGQFDMVCVSGSLPAGVSPEAFTDWMTRLRSQCPCIIFDSSREALVAGLKAAPWLVKPNRRELEIWAGRKLPEMKDVIDAAHALREQGIAHVVISLGAEGALWVNASGEWIAKPPAVDVVSTVGAGDSMVGGLIYGLLMRESSEHTLRLATAVAALAVSQSNVGITDRPQLAAMMARVDLQPFN,not soluble
6,MIDELATKANVALKAMEDFTQEQVDHIVHQMAMAALDQHMPLAKMAVEETGRGIYEDKAIKNMYASEYIWNNIKHDKTVGVINKDEQTGLMEIAEPVGVVCGVTPTTNPTSTTIFKSLIALKTRNPIVFAFHPSAQKCSAEAARIVRDAAIAAGAPENCIQWIEQPSIDATSALMNHPGIAIVLATGGAGMVKSAYSTGKPALGVGPGNVPAYIEKTAKVKRAVNDLIVSKSFDNGMICASE,not soluble
7,MGSDKIHHHHHHMTKARDDRYNFGFLDENTKRMLRRSLLKAVAIPGYQVPFGSREMPLPYGWGTGGIQLTASVIGRDDVLKVIDQGADDTTNAVNIRRFFGRVAGVATTTRTADATLIQTRHRIPETPLKPGQILIFQVPEPEPLRTLEASEVETRKLHAHQEYGLMHVKLYEDIARFGHIATSYDYPVMVNDRYLASPSPIPKFDNPKLDMNPALLLFGAGREKRLYAIPPYTKVESLAFDDHPFEIQSWQQGCAICGSHDSYLDEIVIDDAGSRMFVCSDTDYCQREKQA,not soluble
8,MEYWHYVETTSSGQPLLREGEKDIFIDQSVGLYHGKSKILQRQRGRIFLTSQRIIYIDDAKPTQNSLGLELDDLAYVNYSSGFLTRSPRLILFFKDPSSKDELGKSAETASADVVSTWVCPICMVSNETQGEFTKDTLPTPICINCGVPADYELTKSSINCSNAIDPNANPQNQFGVNSENICPACTFANHPQIGNCEICGHRLPNASKVRSKLNRLNFHDSRVHIELEKNSLARNKSSHSALSSSSSTGSSTEFVQLSFRKSDGVLFSQATERALENILTEKNKHIFNQNVVSVNGVDMRKGASSHEYNNEVPFIETKLSRIGISSLEKSRENQLLNNDILFNNALTDLNKLMSLATSIERLYKNSNITMKTKTLNLQDESTVNEPKTRRPLLILDREKFLNKELFLDEIAREIYEFTLSEFKDLNSDTNYMIITLVDLYAMYNKSMRIGTGLISPMEMREACERFEHLGLNELKLVKVNKRILCVTSEKFDVVKEKLVDLIGDNPGSDLLRLTQILSSNNSKSNWTLGILMEVLQNCVDEGDLLIDKQLSGIYYYKNSYWPSHI,soluble
9,MSLKPDNLPVTFGKNDVEIIARETLYRGFSSLDLYRFRHRLFNGQMSHEVRREIFERGHAAVLLPFDPVRDEVVLIEQIRIAAYDTSETPWLLEMVAGMIEEGESVEDVARREAIEEAGLIVKRTKPVLSFLASPGGTSERSSIMVGEVDATTASGIHGLADENEDIRVHVVSREQAYQWVEEGKIDNAASVIALQWLQLHHQALKNEWAEGGSHHHHHH,soluble
10,MSLSITHQPANLTLAQIQQMIGGVMLLSQHSPLHRRYVVAEWLQRILPAFELNQFCYYEDEHGRPIAFCNWAFVSEQIRDELLSGVREISPSDWRSGQQIYIPEMIAPFGHGREVVNDLRRRVFLPWQGQKVCTVRGKVDAQNDRCIRKVQWFSIEGHHHHHH,soluble
11,MVAWSIVDYGSGDEVPGADAALVLGAAAWGNKPSPVFRERINHAVKLYQSGKVRWIVFTGGTPEPGYPAEADVGREFAARQGVPMTAMLVENQSRTTWQNLSNARDLGNQFGIRSYLLVSDPLHMRRAVLMAGDLGLRAYPAPTQSSRFRTLASWSRFLARETWLYVGYRVFRQLSLEHHHHHH,not soluble
12,MGSDKIHHHHHHMTTKPERVVLIGVAGDSGCGKSTFLRRLIDLFGEEFMTVICLDDYHSLDRKQRKETGITALDPRANNFDLMYEQIKALKEGQTINKPIYNHETGLIDPPEIVKPNHIVVVEGLHPLYDERVRSLLDFSVYFDISDEVKIAWKIQRDMAERGHRYEDVLAAINSRKPDFQKYIEPQREFADVVLQVLPTNLIKDDTDRKVLRVRMLQREGKEGFEPAYLFDEGSTINWTPCGRKLTCSYPGMQLYYGSDVYYGRYVSVLEVDGQFDNLEEVIYIETHLSNTSTKYQGELTQLLLQHREYPGSNNGTGFFQVLTGLKMRAAYERLTAKEAKLAVQV,not soluble
13,MSFILPSESIDGTHPCNGLHMNGQDSLVQPLLTDFYQITMCYAYWKTGTHNEPAVFDVFFRKNPFQGEFTVFAGLEDCLRFVENFKFSQSDIDYVKKILPENAEPEFYEYLETLNGSHLTIEAVAEGSVVFPKVPLLTINGPLAMCQLIETSILNLVNYASLVATNAARFRQASGWKIQLLEFGLRRAQGPNGGLTASKYCYIGGFDATSNVLAGKLYGIPVKGTQAHSFICSFSSPAELKVRLLNHKITNEKADLFQISMEKRAWLLDQFSWKAALSEVSDGELSAFVAYAIAFPDTFLALIDTYDVIRSGVVNFVAVSLALHDLGYRSMGCRIDSGDLSYLSKELRECFVKVSTLKGEYKFFEKMSIVASNDINEETIMSLNDQQHEINAFGVGTHLVTCQKQPALGCVYKLVAQSAQPKIKLSQDVTKITIPGKKKCYRIFGKNGYAILDLMMLEDEPEPQPNQQILCRHPFEVESKRALVNANKIIKLHNVYWKDGEMITPLPTLNEIKEHVNESIRSTLRQDHRRYLNPTPYKVSVSERLYQFLHTLWLQNAPIGQLE,soluble
14,GPGSMSTPNLDALLGVPLAAELVARAGGLLALCKLSDAALRMLGTEEFQSIASSSRARQLHAGLLLKAPLFTNAFGDEEEVDTTDRKAAQKGAAQLGRKCALVAKADLAGAFSDGSLGEAEKEKLNAAFTRLLAEGKVTAEDTQALAAPFVYVHGDAAKHRRGGVKERKKRESQQESISVVARATQRVRMGVSEEEQVQQLLQREDIRSEFAKERAQQLLKESRKRARESVHDEYDDLQNISL,not soluble
15,MNGEVMDELIQKLERVSQTSFIGSGKLMELSELVEMHEADVVIFNSELSATQVRNISKIVDARIIDLEHHHHHH,not soluble
16,MEQSIFRDEKGDCPIVYLAGTLISIGSKPSARYGVCWGAGHAKNEGGPVAGSQTSLRAELTALRRTLEIALAEDITKLIIVFPSKMLGEQLEVWERRPEQHASFENSDILYRVEQLFGEAEARMYFSIDLPTPPDPRAHGYTKALQLARTMLVASRISRNSQITTVAIFAICEKEGKCDALAKYGVYWGQDDHRNEAGLVEDGQTSLRAIMCAVRSALRTAAMHGLKRVHFLTRRIDIINIIKKLAKGEEEDSPGKRNGAIFSDCSRLRSELLDISVKLVQKDVPCVELDRAEAITRGATKKLKKRDNEYERLDRQLLMIESSSSASSPESQPKIENIGDKCPTAVILNLLVRPKFGHSKVSYAVYWGENDEKNERGPVNMRAHAFQADLYAAMCALKKARSKNIRKLHLLTTSEYFKNWMENVQKKNELINDRYDVMMEFQLLLQNFESVTIEVVNSSTQGARRKMYEDAQTFFAGRNESIQKQRSIEDIQLEDPIENNIVEAESVNPESSNQIQVVYVGGACRGRGYANALAVYSVVWPIGEYGCSQGPVTGIVNNIRAKLAAVKSALQQAEQLGIASLIIRTNDQMVHDTLILQNSPIGNIDLMDDIESYKSRMRFVAYQLTTGDYARGNVVADRLAEVIVESIF,soluble
17,EVKLQESGGDLVQPGGSLKLSCAASGFTFSSYTMSWVRQTPEKRLEWVASINNGGGRTYYPDTVKGRFTISRDNAKNTLYLQMSSLKSEDTAMYYCVRHEYYYAMDYWGQGTTVTVSSAWRHPQFGG,soluble
18,APAEPAAPKSGEAETPPKHPGVLKVEAILEKVQGLEQAVDSFEGKKTDKKYLMIEEYLTKELLALDSVDPEGRADVRQARRDGVRKVQTILEKLEQKA,soluble
19,MVDNIEQQVYELVRPYAGTYLFNIKQVELTPEIDLDTDLSIDELEAEDLMNKFFEELNVERGNFRIETYFPNHPFSWHPFKKTEPVPVPDFTISMLIESAKAGKWLYD,not soluble
20,MDVASALEGNWEFRVDHKNIKIFSSKIRGSQVLGFKGEAVFEASLRKLISLFHDFGNYGKWVHQLSEMEVLHKSDELDYVVRQVLNTPWPIPKREMIVRTALHASEEGALALTMTGIPDYVPLKPDFHRVREARGGWILMPVDGGKVHVTFVMHLDPGSDIPPALSNAALFEVPFYSLLKMRDLAQNPSYKPAWPSVVDNHVTIIEDVPDKHLEHHHHHH,soluble
